21 sequences from the DeepSol protein solubility set can be followed below.

The series is described as follows: soluble on expression in E. coli; label from the status in PepcDB or PDB records.
Regarding “GPGSMSATEAVVEPKAPDVCTEANERPPTESGVAAPVKRLFDLLQEDSKERVVRLLTAFRELTLLEQESLAQEMGVTLPKEEKWRAPCPLIARQPSGPSLEVRRRDPSYVALCPSVSSALRELGSKEAARRLPDADLRKLVEGALGEDGVYLTVPESDGEGCAAASERVGVVDDGKPPLLVRSRCYQALRLARDEEIETDAQYTRPRVLNVTGIPLEESDVWEWFNLLDVARNGTVGVDAFLTSVRELDRGFGTSSKVQEAFEDESRSLSVDGQLSFDKFAYLVTRFSRY”, the “soluble on expression in E. coli” value is on record as “soluble”. On to “MPGNSPHYGRWPQHDFTSLKKLRPQSVTSRIQPGSDVIVCAEMDEQWGYVGAKSRQRWLFYAYDSLRKTVVAHVFGERTMATLGRLMSLLSPFDVVIWMTDGWPLYESRLKGKLHVISKRYTQRIERHNLNLRQHLARLGRKSLSFSKSVELHDKVIGHYLNIKHYQLEHHHHHH”, for which the “soluble on expression in E. coli” value was “soluble”. For the sequence “MSEQKQDVAATEEQQPVLQIQRIYVKDVSFEAPNLPHIFQQEWKPKLGFDLSTETTQVGDDLYEVVLNISVETTLEDSGDVAFICEVKQAGVFTISGLEDVQMAHCLTSQCPNMLFPYARELVSNLVNRGTFPALNLSPVNFDALFVEYMNRQQAENAEEKSEEEQTKH”, the “soluble on expression in E. coli” value is recorded as “soluble”. Take “MELGLAGKTALVAASSQGLGKAIARALVLEGTNVMITSRNEEKLHEVAEELNSLHKGRVAYTRTDVTNADDIRQLVAKTVETFGTIDLLVNNAGGPPAGTFETVSDEDWQYAFELNLLSYIRLIREALPYLKKKGGKIVNIASSSIKEPIPGLILSNTFRTGIVGLTKTLAVELAPDGILINTVAPGRIATERVAFLDKVNAEKLGITKEEMEARMKSAIPLGRYGTPEEFANVVVFLLSEANSYVTGQALIVDGGMVKAI”: the “soluble on expression in E. coli” value is reported as “soluble”. With “ELSYRLLDQIYINPAVILKREEQYIKDFQSYVTEQKLSMNDRKKIKEFTKTDWTIVMALYQENDIIFSSDSRFIVPLPADEYGETIKDTSEASGVFNVTFTDGAVQAALVYTGYENYQS”, the “soluble on expression in E. coli” value is reported as “soluble”.

On to “MGSDKIHHHHHHAADKRIDGNGNPETREIKISDYDEITFVGSADFEYEQSDKAPYLSVTIDENLFDYLVTEVEGGTLKIYPKSIKKGFNNNSYDLRPTVYKIKSNSKELKELNTVGSGSFIISKPTKVNRMEINMAGSGNVELRGPVKGYKLECNMAGSGNIIAKDIQLDNLSCSLASSGEIEVIGTVDRASFNVAGSGEIKAFDCQARKAECNIASSGEISVYATQILDANIVGSGEIHYKGDPEISKSIMGSGSINKVK”, for which the “soluble on expression in E. coli” value is “not soluble”. For “MKHPIRKTLVTLGLLLTLCLPTPVAASSRSWKSWFIEQYFWLKRDKSYYSKQDDPSFQRYLDACREQSDKPYQLDTNLVNGPLVQENLYGMQVYSWNDNGKPDQKTIIYLAGGSYLNNPTTYHINMLKTLSTSLDAKIVLPIYPKAPRYTYNYTMPKLVNLYQHYYHKNQNVFLMGDSAGGGLALGLAHALHNESVPQPKQLVLLSPWLDVTMSHPEIPEYEDADPILSSWGLKRVGELWAYSADNTNHIYVSPKNGPITYLPPITLFTGTREIFYPDIRDYAAKLKAANHNITFITQEGMNHVYPIYPIEEAKTAQYQIIDAINKTP”, the “soluble on expression in E. coli” value was “not soluble”. On to “MEEARLLVTCPDRPGIVAAVSGFLYAHGANITDLQQHSTDPEGGTFFMRVAFTASHLDLARPALERAFQEVVASRFQMQWRLAYASERKRTAILVSKPAHALLELLWRYRVGELPMELRLVISNHPDHREEVERFGIPYHHVPVEKGRKEEAEERILALLEAEGVELVVLARYMQILSPGFVERFPMRIINIHHSFLPAFAGADPYRQAYERGVKLIGATAHYVTEELDQGPIIEQDVVRVSHRHSVREMKRLGRELERTVLARAVRWHLEDRILVHENRTVVFV”, for which the “soluble on expression in E. coli” value is given as “soluble”. For the sequence “MFEKVKVSTCFHVTLLKDYIVFYVSNNLNFASRWPRRRRGQRLLPTALRAMMLNPTEALLAEVSKARTSGARITVEEFIPIYKKVEAACGRSTTLKEFQTLLSHFDREGNGQIMLMELKSMLQNGGEKMTNQEARALKPATGLDTIYRNLNFNHKFTLDHSAIGFLRTNQFFDVQMIPVSRFFTVQDPSNALLSYTQKGIDFFEKLGQFSKEKAAIEEEYSTKLRSLAKKYAKKSEEDDEILKSVSYTSSFNSFLQQLDQIATRHQTSAEHIRGGVVSYVASKTCQMRSSRKNAINDLKTINDKLEDQINEMCKSGKCYLKSFKDAENSYQKFYKADKNLEISRLELEKARALANARNEACELAKQDYSALVRKTNAEQKRYHVELLPVIFARLKAVDKECIADMRQVLQKIVSFDDSLADSTEECRKIMQREVGKIDAEGDAQLVLKSVEATIEQPAPFEIEDLGDPKNCDSRTNDSADGSGGKLLKSSPSKNRIIRNFLGILKEKEADEKPEASNNDQLMYTDKSKPAHVRLSCLRSKIRDMEKQLEQAIQGREGITRLQQAYYTNPQHGNPSACTEPLISYAKKIEKLKMDIHNLKEFYAMLEMSVEEGQERSFGGRDTPDTTRSMSGSSTNQSSSKTIEDVLSGEAGNSSSADDSSKNILRQLFTTPKRLISSPKTSKSSTPTPLRRRAEISSPKILRSSFSGAIRKSLSTPDSVKVETAVTVTALFEFAKSSAETMSIEQGEILLVLEHDHGDGWTRTKKKHNEESGFVPTSYLQFPQ”, the “soluble on expression in E. coli” value was “not soluble”. The entry for “MAQQTNVAGQKTEKQRKAPFRADHVGSLLRSVPVKEARQKKAAGEMTAEQLRDIENQEITRIVEKQKEIGLDVVTDGEFRRSWWHYDFLEGLDGVEPFIPAEGIQFHNTKTKARSIKVTGKLDFTSHPALGDYQFLHEIAGNATPKLTIPSPNMLFFGEKADKGIYDDQEEYFHDMAQAYKKAIKAFYDAGCRYLQLDDTSWSLFFEDKGREVVRALGGDPETLPAIFAKTINDAVADRPDDLTITMHICRGNFRSTWAASGGYDAVAETILDGLNLDGLFLEYDDDRSGNFDPLRFVKRKDLQIVLGLITSKYGELENPEDVNAVSMKPRVLSAWTSYALEHHHHHH” is “not soluble”; for “MHGLNKDIIFPLQIFALSNNVLYNFPEQGVVPVLYVIYAQDKADSLEKRLSVRPAHLARLQLLHDEGRLLTAGPMPAVDSNDPGAAGFTGSTVIAEFESLEAAQAWADADPYVAAGVYEHVSVKPFKKVF” it is “not soluble”; for “PASQTAANNLGGALNFSVENRTVKRIKFRYNVAKPITTEGLSKLSKGLGEAFLDNTTKAKLAELADPLNARYTGKKPDEVIQAQLDGLEELFADIPPPKDNDKQYKALRDLKRAAVEHRASANKHSVMDNARFETSKTNLSGLSSESILTKIMSSVRDASAPGNATRVAEFMRQDPKLRAMLKEMEGSIGTLARVRLEPKDSLVDKIDEGSLNGTMTQSDLSSMLEDRNEMRIKRLVVFHTATQAENFTSPTPLVSYNSGANVSVTKTLGRINFVYGADQDKPIGYTFDGELSRPSASLKEAAGDLKKEGFELKS” it is “not soluble”.

In the case of “MGSDKIHHHHHHFACKEETDLYFNGDITVIKSFDNDTLLSPVKVELEDIYDGSVLAYDSLLFFTSHKYSDCWMYVFSVNSGKHIASLCPKGQGPNDYLSCKNSQQFIRENGELKLWVRDNAKSARLLNITKSIETGATVCDAIIPMDWNKYFVYPATTLFFLKDGYILGQNQCEEQYSKGKEYIPRKFYLYKDSLGNKVKEYKLFNRPVILKDDKYDVLSGMFYANHSYIHPDQTKVAIAMQRVAQITILDVKSGKQVGYRMDDTLDFSDIEQNLECIRYYYTSAAVNSRYIFALYIDQAEMGGKYPFKSKTVHVFNWEGRPVYKIQLDKEISWITLDPQNNRLYAQGEDDSIWAYDVSWLSK”, the “soluble on expression in E. coli” value was “not soluble”.

Take “MSLQWAKQSEQNVYSNRWFSVNLADVLLPDGRHLDHFLIRMRPVAVATVVNEADEVLLLWRHRFITDSWGWELAAGVVEDGEDVAVAAARELEEETGWRPGPLHHLMSVEPSNGLTDARHHVYWAEEGTYVGHPVDDFESERREWVPLKLVPDLVARGEVPAANMAAALLLLHHLRLGRDQEGHHHHHH”: the “soluble on expression in E. coli” value was “soluble”. With “MEENSIKIHKWLYPASWLYGAGVALRNKLFDWGKLQSKSFNVPIICIGNIAVGGTGKTPHTEYLIKLLHDEFQVAVLSRGYKRHTKGFVLSTAESDARSIGDEPYQIQSKFSDIRVAVDEDRCHGIERLLTLKEPPVEVILLDDAFQHRYVKAGLNILLTDYHRLFCDDTLMPAGRLRESAQGKNRAQIVIVTKCPPDIKPIDYNIITKRLNLFPYQQLYFSSFRYGNLRAVFPDCATVQERKLSSLQTEEQILLITGIASPDTIIRELEIHTRNIDLLAFSDHHNFSQRDLAQIKERFGKLRKGQRLIVTTEKDATRLICHQELDEGLKPFIYALPIEVEILQNQQDNFNQHIIGYVRENTRNGSLPERKDAHKSLEHHHHHH”, the “soluble on expression in E. coli” value is “soluble”. Turning to “MIATYNTNVGDVLMLITANDKGEKVNFERKGKVARVFIEETGATVAWNIFEAKSLLANLSGNGQVVLSSDDIETLNKELGKSGFSDVLVHDAQPKFVVAEIVEMEDHPDSDHLHICKVNVGFADPVQIVCGAPNAALGLKTVAALPGAMMPNGSLIFPGALRGVQSYGMLCSARELELPNAPEVRGIIELSSDLSAGKAFDSETMWQALEHHHHHH”, the “soluble on expression in E. coli” value is recorded as “soluble”. In the case of “AQGLQARFQLLRVLEVPADDAVAKGLEISFGEPVALIERLGLADEEPISVGSGYFPLKRFPDFLEPENIKILQEQQSISQFLQQVYGCDHIRRSTCVSARLVQPQDAKWLQIPLNQPILLAESVNVDQAGNVIEYGVTRLRGDRME”, the “soluble on expression in E. coli” value is listed as “not soluble”.

Take “MPLPYDKEKKLWKVTGWYLESSEETGEVMQSKQIAFEGYTNEENFANRQRVSVFKSFYESGNLKSIYHYNAQNKRDGKAETYFDEKDKIAETLTFKDGQPEGEYIVYHENGAVESKRYFAQGKIKDGECPHFYDNGVLKQKHSYLNQKLEGPAFEYFPDGKIKGKYSYSKGTIVGTSTEYYSTGKIRGVYHRNNQGENDGTFEQYSEEGKLLSKATYKNGKQLSAQSWYENGHPKEESSFDSEGRKHGAVKEWFSNGKPASSKMYKHDVLDGDFEKWYENGHRESVYPYKNGMLNGDAKHWNEQGKLTYTTEYKDDKKQGADRRWSERTGKLVEEVMFANDERNGLKREFNDRTGKVLSALPYVDGDKEGTEEAYDEDGIKYIRCYHNDEELSELYAPTDVTNKAKQGDSTAQYHLGKYEFECTNYDAAMKWLTQSAEQNHPGALLFLAYAYNDGDGVAQDSKKYLSYLFKAAELGESDAQLEVGYLNLIGEGMPKNLPEAYKWIKKSADQGNAQAHYNLGLMYRNGDGVEKDLNKAKLHLTAAVKGGVKPALAALKELTPQTKLEHHHHHH”: the “soluble on expression in E. coli” value is listed as “not soluble”. The entry for “MEAEEIIGLLKKGDLEKAKDALSKEIDNLSDEELKEILEVAESVAKEKEDIELLKLVVYYYAEFFGIDKLEEFEGIAKEKGYEGLMHLADLYSLLGYPEKALDIYRELLKTDLIKEKEHIGEIYYGIATIHDELQEYDKALEAINEAVKAFKESNNVEKLHQAEVYRAYITFENGDRDKAKEILAGLLPHVTNREIKAQIHLVFKEIFEDEENYEAAIQESLYSLIEGIDTEVFDLAFDGLIDLIWELILEDKFEEIYKSMPMFKVAIPSLKDFFEGVRRIAMYREGKIGREEVSEILMKVKDERLVSILEFLGEAEV” is “soluble”. For “MGSDKIHHHHHHMGYLKTMVDVMTTEMNAIRCLIDEAGIEYESIVSEIANCEGKVIFMGVGKSAHIGKKLAATFASTGTPSFFVHATEAVHGDLGMIESKDITILISNSGNSMEVVNCIKYIKAIGSKTIAFTSNRNSVLAKECDYALIYPAKDEADHLNLAPTTSSTITLVLGDSIACALSKSSNFGSSDFYKYHPGGSLGEKLKTANNG”, the “soluble on expression in E. coli” value is reported as “not soluble”. In the case of “SLPIASTATQMGSNKTRIFARQPAKAPPPLAWLSRPRDPRATAIAAAGQQSSRRVSKRELESHGSATDAWTAIHGVVYDITAYFRFHPGGAEILFIEAAGKDSTAVFDEMHPWVNVAWLLKDYRIGLYAPESEDDGGDDDDDDRTMTSPE”, the “soluble on expression in E. coli” value is listed as “soluble”.
